Source: doi:10.1101/190033 (bioRxiv, 2017)

Key:
SEC [1] = molecular target: the molecule itself; test: SEC
GEMMA = molecular target: the molecule itself; test: GEMMA
SEC [2] = molecular target: the molecule itself; test: SEC; remark: listed apart in the source
crystal structure = molecular target: the molecule itself; test: crystal structure

B1: Leeuwenhoekiella blandensis class I ribonucleotide reductase radical-generating subunit NrdBi (NrdB), wild type (enzyme, Leeuwenhoekiella blandensis MED217, UniProt A3XHF9 1-427, looked up)
chain: MSSQEIKKIIKRDYSTAPFVLEKITNAIANAMAALGHGSEQDAKLISMQVYESLLNNKEQESEYIPTVEQVQDMVEDKLMSSEFHDVAKAYIIYRNKRALERKTNIFEKRINLKPYEYPELNEYVAAIRHSYWIHTEFNFTSDIQDFKTGLSEVERSAIKNTMLAISQIEVAVKTFWGDVHHRLPKPEIAAVGATFAESEVRHHDAYSHLLEILGLNEEFKELKKKPVIMKRVHYLETSLKHAKSDDDREYTESILLFALFIEHVSLFSQFLIIMAFNKHKNMLKGISNAVEATSKEEQIHGDFGVDIINIIKKENPEWFDEEHNNLIKEMCLNSFEAESKVVDWIFEKGELDFLPKAVINEFLKNRFNKSLEAIGLEKLFDIDEALLQETEWFDDEIIGTKHGDFFVKRSINYSKRTQSITSDDLF
Which results are given for B1?
stoichiometry N (SEC [1]): 2; stoichiometry N (GEMMA): 4

B2: Leeuwenhoekiella blandensis class I ribonucleotide reductase catalytic subunit NrdAi (NrdA) (enzyme, Leeuwenhoekiella blandensis MED217, UniProt A3XHF8 1-600, looked up)
chain: MRENTTKLENSTETNVQHTKDNDLLKARRDALQDATEKNTDEPSFDWLTEHSRSFLAAGYLSEGVSAEERIREIADRAEEILRMPGFSDKFYKYMGEGYFSLASPVWSNFGKKRGLPISCFGSHIDDDMGNILYTQSEVGMMSKLGGGTSGYFGKIRHRGAAVKNNGYASGAVHIMQLFDKMVDVVSQGSVRRGRFSPYLPISHPDIKEFLEIGTEGNSIQQLTHGVTVDSTWMQEMIDGDTDKREVWAKVLQRRGEMGYPYIFYTDNANNGKPDVYKDKGHDIYASNLCTEIMLPSSDEWSFVCVLSSINVLHYDKWKNTDAVETMVCFLDAVLTEFIDKLEEYRDSDNRDHRQTFMFMERAYNFAKSNRALGLGVLGWHSLLQSKRHAFDSQEAYDLNSEIFREIKQRSYKASEELAEKFGEPETLKGYGRRNATLNAIAPTTSSAFILGQVSQGIEPIWSNVYVKDIAKIKTTIKNPFLEELFEEKGMNTPEVWRSVRDNDGSVQHLEFLTEQEKDVFKTYAEIDQMAIIYQAANRQNHIDQGQSINLLVHPDMPIKEINKIHITAWKLGLKSLYYQHSMNAAQKFKQKKECVSCEA
For B2, which “stoichiometry N” value (SEC [2]) is on record?
The value was 2.

B3: Leeuwenhoekiella blandensis NrdB, thrombin-cleaved (hexahistidine tag removed), used for crystallization (enzyme, Leeuwenhoekiella blandensis MED217)
chain: GSHMSSQEIKKIIKRDYSTAPFVLEKITNAIANAMAALGHGSEQDAKLISMQVYESLLNNKEQESEYIPTVEQVQDMVEDKLMSSEFHDVAKAYIIYRNKRALERKTNIFEKRINLKPYEYPELNEYVAAIRHSYWIHTEFNFTSDIQDFKTGLSEVERSAIKNTMLAISQIEVAVKTFWGDVHHRLPKPEIAAVGATFAESEVRHHDAYSHLLEILGLNEEFKELKKKPVIMKRVHYLETSLKHAKSDDDREYTESILLFALFIEHVSLFSQFLIIMAFNKHKNMLKGISNAVEATSKEEQIHGDFGVDIINIIKKENPEWFDEEHNNLIKEMCLNSFEAESKVVDWIFEKGELDFLPKAVINEFLKNRFNKSLEAIGLEKLFDIDEALLQETEWFDDEIIGTKHGDFFVKRSINYSKRTQSITSDDLF
How did the “stoichiometry N” value (crystal structure) turn out when B3 was run?
Its value is 4.
